Test results from publication PMC12482441 (Autophagy Reports, 2025).

Experiments:
[1] = biological target: His-MBP-tagged N. fulvescens Atg17 (N. fulvescens); assay: negative stain EM
negative stain EM = biological target: the molecule itself; assay: negative stain EM

How did the stoichiometry N [1] turn out when “His-MBP-tagged N. fulvescens Atg17 (natural protein)” was run?
The stoichiometry N was 2.

B1: His-MBP-tagged S. pombe Atg17 (natural protein, UniProt O42651 1-411, looked up)
chain: MELLQQWTQQAKAALTQARQLCGDAHKFNEDAKTDLRNSIKQHQQLKELAKLTASQCTRLDSSTALIKQLLDLVQNYPTFNQLNVLHDRLESSLKRLRDCTLDPALGSEYTNLYAFVDDTALEDLKTRLRGVTDGVWNAFEKLAGLLEEDLCANYHKRLEAVSLDFLPPAYNDTAEELADLLLQVAQHYDQCSEALNIYDTLSDAEKKDLQEVLQSDSNHVPSVLTELRSGLDQTIHYFNAVQSYKSKVDSATSILEALAEELNKNQLTNQRHEAAHELMRAQTGLEIPQLAQELVQLERHYTHFAKAYTALLQEIHRRQTYENCVRSIVDEFVGRLEKEQQAEAKCRIDFFNQYGDYLPQTLWGAVTDPPLHFEIIEHQYTELPNVKVIPDKNDKKSKQREKSSTTASKR
With B1 as the molecule, how does the “stoichiometry N” value (negative stain EM) read?
The value was 2.

B2: His-MBP-tagged S. cerevisiae Atg17 (natural protein, UniProt Q06410 1-417, looked up)
chain: MNEADVTKFVNNARKTLTDAQLLCSSANLRIVDIKKKLSSWQLSISKLNFLIVGLRQQGKFLYTILKEGIGTKLIQKQWNQAVLVVLVDEMKYWQYEITSKVQRLDGIVNELSISEKDDTDPSKLGDYISRDNVNLLNDKLKEVPVIERQIENIKLQYENMVRKVNKELIDTKLTDVTQKFQSKFGIDNLMETNVAEQFSRELTDLEKDLAEIMNSLTQHFDKTLLLQDKKIDNDEREELFKVVQGDDKELYNIFKTLHEVIDDVDKTILNLGQFLQAKIKEKTELHSEVSEIINDFNRNLEYLLIFKDISNLIDSFKNSCTQDIQTTKELCEFYDNFEESYGNLVLEAKRRKDVANRMKTILKDCEKQLQNLDAQDQEERQNFIAENGTYLPETIWPGKIDDFSSLYTLNYNVKNP
With B2 as the molecule, how does the “stoichiometry N” value (negative stain EM) read?
Its value is 2.
